Measurements reported in PMC10397247.
Read-outs that look alike come from different tables or passages of the source. Blank lines part the entries; values can stand above or below the binder they belong to.

How the values were obtained:
[1] = target: T1, APC9319-AA; experiment: two-hybrid library CCmax; settings: mean of both orientations;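 also: natural log of median RNA to DNA barcode read ratio; higher means stronger binding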
T1 chain: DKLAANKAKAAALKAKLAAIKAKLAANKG

[2] = target: T2, APC9096-AA; experiment: two-hybrid library CCmax; settings: mean of both orientations;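 also: natural log of median RNA to DNA barcode read ratio; higher means stronger binding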
T2 chain: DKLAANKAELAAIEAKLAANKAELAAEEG

[3] = target: T3, APC8910-AA; experiment: two-hybrid library CCmax;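 also: natural log of median RNA to DNA barcode read ratio; higher means stronger binding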
T3 chain: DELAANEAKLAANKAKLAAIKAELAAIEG

[4] = target: T4, 4H428-AA; experiment: two-hybrid library CCmax; settings: mean of both orientations;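 also: natural log of median RNA to DNA barcode read ratio; higher means stronger binding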
T4 chain: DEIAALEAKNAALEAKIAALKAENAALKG

[5] = target: T5, 4H656-AA; experiment: two-hybrid library CCmax; settings: mean of both orientations;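 also: natural log of median RNA to DNA barcode read ratio; higher means stronger binding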
T5 chain: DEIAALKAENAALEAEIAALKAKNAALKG

[6] = target: T6, 4H3939-AA; experiment: two-hybrid library CCmax; settings: mean of both orientations;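 also: natural log of median RNA to DNA barcode read ratio; higher means stronger binding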
T6 chain: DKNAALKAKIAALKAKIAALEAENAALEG

[7] = target: T7, 4H391-AA; experiment: two-hybrid library CCmax; settings: mean of both orientations
T7 chain: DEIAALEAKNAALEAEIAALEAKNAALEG

[8] = target: T8, 4H3920-AA; experiment: two-hybrid library CCmax; settings: mean of both orientations
T8 chain: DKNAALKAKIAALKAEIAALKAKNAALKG

[9] = target: T9, 4H675-AA; experiment: two-hybrid library CCmax
T9 chain: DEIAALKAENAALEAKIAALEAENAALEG

[10] = target: T10, 4H497-AA; experiment: two-hybrid library CCmax; settings: mean of both orientations
T10 chain: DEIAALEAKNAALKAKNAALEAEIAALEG

[11] = target: T11, 4H3666-AA; experiment: two-hybrid library CCmax; settings: mean of both orientations
T11 chain: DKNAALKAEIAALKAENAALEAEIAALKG

[12] = target: T12, 4H478-AA; experiment: two-hybrid library CCmax; settings: mean of both orientations
T12 chain: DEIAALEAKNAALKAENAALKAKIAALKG

[13] = target: T13, 4H3591-AA; experiment: two-hybrid library CCmax
T13 chain: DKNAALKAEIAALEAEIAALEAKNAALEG

[14] = target: T14, 4H3628-AA; experiment: two-hybrid library CCmax
T14 chain: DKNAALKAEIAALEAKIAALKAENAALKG

[15] = target: T15, 4H971-AA; experiment: two-hybrid library CCmax; settings: mean of both orientations
T15 chain: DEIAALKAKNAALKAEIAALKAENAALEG

[16] = target: T16, 4H3709-AA; experiment: two-hybrid library CCmax; settings: mean of both orientations
T16 chain: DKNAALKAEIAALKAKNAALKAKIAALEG

[17] = target: T17, 4H697-AA; experiment: two-hybrid library CCmax; settings: mean of both orientations
T17 chain: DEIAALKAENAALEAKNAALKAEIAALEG

[18] = target: T18, 4H3588-AA; experiment: two-hybrid library CCmax; settings: mean of both orientations
T18 chain: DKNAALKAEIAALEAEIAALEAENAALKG

[19] = target: T19, 4H3718-AA; experiment: two-hybrid library CCmax; settings: mean of both orientations
T19 chain: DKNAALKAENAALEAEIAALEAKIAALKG

[20] = target: T20, 4H3865-AA; experiment: two-hybrid library CCmax; settings: mean of both orientations
T20 chain: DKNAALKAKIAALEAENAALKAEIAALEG

[21] = target: T21, 4H340-AA; experiment: two-hybrid library CCmax
T21 chain: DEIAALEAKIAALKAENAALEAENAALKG

[22] = target: T22, 4H3606-AA; experiment: two-hybrid library CCmax; settings: mean of both orientations
T22 chain: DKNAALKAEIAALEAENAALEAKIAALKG

[23] = target: T23, 4H982-AA; experiment: two-hybrid library CCmax; settings: mean of both orientations
T23 chain: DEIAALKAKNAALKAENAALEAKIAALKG

[24] = target: T24, 4H3413-AA; experiment: two-hybrid library CCmax; settings: mean of both orientations
T24 chain: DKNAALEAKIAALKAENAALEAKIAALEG

[25] = target: T25, 4H3631-AA; experiment: two-hybrid library CCmax; settings: mean of both orientations
T25 chain: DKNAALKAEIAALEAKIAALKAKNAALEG

[26] = target: T26, 4H3697-AA; experiment: two-hybrid library CCmax; settings: mean of both orientations
T26 chain: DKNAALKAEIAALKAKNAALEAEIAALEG

[27] = target: T27, 4H384-AA; experiment: two-hybrid library CCmax; settings: mean of both orientations
T27 chain: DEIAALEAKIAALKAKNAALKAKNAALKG

[28] = target: T28, 4H72-bH; experiment: two-hybrid library CCNG1
T28 chain: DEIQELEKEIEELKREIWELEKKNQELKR

[29] = target: T29, 4H953-bH; experiment: two-hybrid library CCNG1
T29 chain: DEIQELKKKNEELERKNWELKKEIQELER

[30] = target: T30, 4H967-bH; experiment: two-hybrid library CCNG1
T30 chain: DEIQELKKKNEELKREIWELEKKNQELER

[31] = target: T31, 4H687-bH; experiment: two-hybrid library CCNG1
T31 chain: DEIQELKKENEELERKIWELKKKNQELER

[32] = target: T32, 4H908-bH; experiment: two-hybrid library CCNG1
T32 chain: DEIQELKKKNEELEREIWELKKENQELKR

[33] = target: T33, 4H918-bH; experiment: two-hybrid library CCNG1
T33 chain: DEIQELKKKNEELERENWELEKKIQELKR

[34] = target: T34, 4H607-bH; experiment: two-hybrid library CCNG1
T34 chain: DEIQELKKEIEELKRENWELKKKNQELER

[35] = target: T35, 4H797-bH; experiment: two-hybrid library CCNG1
T35 chain: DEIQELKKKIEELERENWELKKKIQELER

[36] = target: T36, 4H754-bH; experiment: two-hybrid library CCNG1
T36 chain: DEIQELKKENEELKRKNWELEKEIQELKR

[37] = target: T37, 4H883-bH; experiment: two-hybrid library CCNG1
T37 chain: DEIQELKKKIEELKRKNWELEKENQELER

[38] = target: T38, 4H717-bH; experiment: two-hybrid library CCNG1
T38 chain: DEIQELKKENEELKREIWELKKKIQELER

[39] = target: T39, 4H883-bN; experiment: two-hybrid library CCNG1
T39 chain: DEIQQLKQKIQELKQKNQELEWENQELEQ

[40] = target: T40, 4H87-AA; experiment: two-hybrid library CCmax
T40 chain: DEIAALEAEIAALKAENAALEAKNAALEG

[41] = target: T41, 4H968-bH; experiment: two-hybrid library CCNG1
T41 chain: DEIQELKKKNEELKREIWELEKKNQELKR

[42] = target: T42, 4H932-bA; experiment: two-hybrid library CCNG1
T42 chain: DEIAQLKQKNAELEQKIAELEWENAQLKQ

[43] = target: T43, 4H568-bH; experiment: two-hybrid library CCNG1
T43 chain: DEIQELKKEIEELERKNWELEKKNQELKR

[44] = target: T44, 4H3777-AA; experiment: two-hybrid library CCmax; settings: mean of both orientations
T44 chain: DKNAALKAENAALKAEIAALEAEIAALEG

[45] = target: T45, 4H3915-AA; experiment: two-hybrid library CCmax; settings: mean of both orientations
T45 chain: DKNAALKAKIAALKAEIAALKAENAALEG

[46] = target: T46, 4H3974-AA; experiment: two-hybrid library CCmax; settings: mean of both orientations
T46 chain: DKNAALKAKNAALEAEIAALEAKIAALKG

[47] = target: T47, 4H3619-AA; experiment: two-hybrid library CCmax
T47 chain: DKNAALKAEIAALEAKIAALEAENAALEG

[48] = target: T48, 4H432-AA; experiment: two-hybrid library CCmax; settings: mean of both orientations
T48 chain: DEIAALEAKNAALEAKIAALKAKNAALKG

[49] = target: T49, 4H380-AA; experiment: two-hybrid library CCmax; settings: mean of both orientations
T49 chain: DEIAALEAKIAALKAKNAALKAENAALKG

[50] = target: T50, 4H446-AA; experiment: two-hybrid library CCmax; settings: mean of both orientations
T50 chain: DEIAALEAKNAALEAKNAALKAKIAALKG

[51] = target: T51, 4H63-AA; experiment: two-hybrid library CCmax; settings: mean of both orientations
T51 chain: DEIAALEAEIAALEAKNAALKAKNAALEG

[52] = target: T52, 4H3629-AA; experiment: two-hybrid library CCmax; settings: mean of both orientations
T52 chain: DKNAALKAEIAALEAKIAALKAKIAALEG

[53] = target: T53, 4H949-bH; experiment: two-hybrid library CCNG1
T53 chain: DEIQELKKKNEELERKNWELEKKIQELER

- interaction score [1]: -2.07
- interaction score [2]: -2.09
- interaction score [3]: -2.88
Binder: DELAANEAKLAANKAKLAAIKAELAAIEG [APC8910-AA]

- interaction score [4]: -1.03
- interaction score [5]: -0.984
- interaction score [6]: 1.03
- interaction score [7]: -2.02
- interaction score [8]: 0.759
- interaction score [9]: -1.63
- interaction score [10]: -1.86
- interaction score [11]: -1.67
- interaction score [12]: -1.53
- interaction score [13]: -1.51
- interaction score ([14]; mean of both orientations): -0.555
- interaction score [15]: -1.24
- interaction score [16]: -0.696
Binder: DKNAALKAEIAALEAEIAALEAKNAALEG [4H3591-AA]

- interaction score [4]: -0.847
- interaction score [5]: -1.43
- interaction score [6]: 0.744
- interaction score [7]: -1.27
- interaction score [8]: 0.724
- interaction score ([9]; mean of both orientations): -1.51
- interaction score [10]: -1.67
- interaction score [11]: -1.56
- interaction score [12]: -2.19
- interaction score [14]: 0.286
- interaction score [15]: -1.01
- interaction score [16]: -1.58
Binder: DKNAALKAEIAALEAKIAALKAENAALKG [4H3628-AA]

- interaction score [44]: -1.36
- interaction score [45]: -0.429
- interaction score [46]: -0.337
- interaction score [47]: -1.28
- interaction score [48]: -0.708
- interaction score [49]: -0.137
- interaction score [50]: -1.21
- interaction score [51]: -0.357
- interaction score [52]: 0.411
Binder: DKNAALKAEIAALEAKIAALEAENAALEG [4H3619-AA]

- interaction score [53]: 0.634
Binder: DEIQELKKKNEELERKNWELEKKIQELER [4H949-bH]

Further lines, the binder ahead of its results:

Binder: DEIAALEAKIAALKAENAALEAENAALKG [4H340-AA]
- interaction score [17]: -1.32
- interaction score [18]: -0.126
- interaction score [19]: -0.983
- interaction score [20]: -1.26
- interaction score [21]: 0.807
- interaction score [22]: -0.46
- interaction score [23]: -1.24
- interaction score [24]: -1.52
- interaction score [25]: -0.0653
- interaction score [26]: -1.98
- interaction score [27]: 1.51

Binder: DEIQELKKEIEELKRENWELKKKNQELER [4H607-bH]
- interaction score [28]: -1.24
- interaction score [29]: -0.825
- interaction score [30]: -2
- interaction score [31]: -0.72
- interaction score [32]: -1.04
- interaction score [33]: -0.801
- interaction score [34]: 0.163
- interaction score [35]: -1.49
- interaction score [36]: -0.342
- interaction score [37]: 0.522
- interaction score [38]: 0.512

Binder: DEIQELKKENEELKREIWELKKKIQELER [4H717-bH]
- interaction score [28]: -0.629
- interaction score [29]: -0.135
- interaction score [30]: -0.767
- interaction score [32]: -1.59
- interaction score [33]: 0.0812
- interaction score [35]: -1.17
- interaction score [36]: 0.538
- interaction score [37]: -0.589
- interaction score [38]: 0.358
- interaction score [39]: -0.103

Binder: DEIAALEAEIAALKAENAALEAKNAALEG [4H87-AA]
- interaction score [40]: -0.571

Binder: DEIQELKKKNEELERENWELEKKIQELKR [4H918-bH]
- interaction score [29]: -0.806
- interaction score [30]: -0.25
- interaction score [41]: -0.174
- interaction score [33]: 1.26
- interaction score [42]: -1.28

Binder: DEIQELKKEIEELERKNWELEKKNQELKR [4H568-bH]
- interaction score [28]: -1.52
- interaction score [29]: -1.24
- interaction score [30]: 0.179
- interaction score [31]: -0.423
- interaction score [32]: 0.115
- interaction score [33]: -0.673
- interaction score [34]: 0.0933
- interaction score [35]: -0.219
- interaction score [36]: 0.644
- interaction score [37]: 1
- interaction score [43]: -1.25
- interaction score [38]: 0.643
